Assay [1] has as its target β2-adrenergic receptor, construct PN1 (monomeric receptor) (UniProt P07550). Put plainly: BLI; FLAG-tagged β2AR (monomer or AP-bound dimer) captured with 10 μM Iso on SA tips by biotinylated anti-FLAG M1 Fab; Gs 30 nM to 10 μM with 10 μM GDP and 0.1% BSA in NH buffer, 0.01% LMNG, 0.001% CHS; 30°C; KD from equilibrium responses. (In general: BLI is a label-free optical method that tracks binding on a fibre tip over time.)

Assay [2] concerns the target AP-7-168-bound β2AR dimer (construct PN1) (UniProt P07550). Put plainly: SEC; AP-bound dimer with nucleotide-free Gs; peak fractions on SDS-PAGE, ratio of β2AR to Gα estimated on gels.
The target in assay [3] is β2-adrenergic receptor, construct PN1 (monomeric receptor) (UniProt P07550). Put plainly: BLI; as a16, monomeric β2AR with 10 μM AP.

pKd: −log10 of the molar value.

With “heterotrimeric Gs (Gαsβ1γ2) (from UniProt P63092 1-394; P62873 1-340; P59768 1-71) (complex)”, the pKd was 6.02 in assay [1] and 5.77 in assay [3]. In addition, the stoichiometry N in assay [2] was 2 β2AR per Gα.

The term pKd denotes the negative decadic logarithm of the Kd, by convention in mol/L. A higher pKd goes with a small Kd. As a reminder, the stoichiometry N is the number of molecules, sites or subunits per partner or assembly.

Source of the values: PMC12676389.
